In patent US11078245B2, “Colon and pancreas cancer peptidomimetics” (PRECISION BIOLOGICS, INC., priority 2010, dated 2021):

Tests used:
[1] = test system: Pancreatic cancer biopsies; assay: IHC staining of patient tumor biopsies with NEO-101; format: binding, human
Procedure: (§1) Patients enrolled on the clinical diagnostic study agreed to provide their tumor biopsy or surgical specimen to be stained immunohistochemically with NEO-101. Tumor sections were prepared as slides, and two additional slides were prepared for negative control (human IgG1) and positive control (cytokeratin) staining to ensure quality controls for the IHC method. More specifically, tumor biopsy specimens from colorectal and pancreas cancer patients were deparaffinized at about 60° C. for 30 min prior to staining with NEO-101. Subsequently, all staining steps were carried out at about 25° C. Slides (4 μm) were blocked with Peroxo-Bloc® inhibitor (Zymed Laboratories) for about 2 min, rinsed with phosphate-buffered saline (PBS), and blocked with CAS (Zymed) for an additional about 10 minutes. Slides were stained with about 10 μg/mL of biotin-labeled NEO-101 for 1 hour, and washed three times with PBS containing 0.05% Tween®-20 non-ionic detergent. […] A 1:400 dilution of peroxidase-conjugated streptavidin (Dako North America, Inc.) was then applied to the slides for about 30 minutes and slides were washed three times. A solution of DAB (Zymed) was applied for about 2-3 minutes then rinsed with PBS. A solution of hematoxylin was then applied for about 3 minutes and rinsed with tap water until clear. The slides were dehydrated with xylene and a coverslip was added using Permount® mounting medium. Additional consecutive slides were stained with human cytokeratin AE1/AE3 (Abcam plc) as a positive control, and human IgG1 isotype as a negative control (AXXORA, LLC).
(§2) All antibodies were biotinylated prior to use and tested independently at various concentrations using human tumor tissues known to react with the antibodies. Primary antibody (NEO-101) was used at about 10 μg/mL, detected with streptavidin-horseradish peroxidase conjugate, and mounted on slides. A positive staining scale ranging from +1 to +5 was applied to the staining results, measured by light microscopy. Tissues stained with NEO-101 were considered positive (+1 to +5) for an average of 79% of the patient tumor samples (30 of 38 of both colorectal and pancreatic cancer biopsies) including the 5 pancreatic tumor samples. Tissues that were negative or considered weak staining by the immunohistochemist were considered negative. These staining results are similar to results from several other studies completed with antibodies using tissue array slides, and both frozen and paraffin-embedded surgical specimens.

[2] = test system: Colorectal cancer biopsies; assay: as above; format: binding, human
Procedure: as §1, §2

MUC5AC long construct = target: T1, MUC5AC long construct (Homo sapiens, UniProt P98088, DEL3501-3501/G3481S/I3234V); assay: Immunofluorescence of transfected CHO cells; format: cell-based; conditions: different plasmid clones of the MUC5AC long construct
T1 construct: expressed in transfected cells; host or cells: CHO cells, transient/clonal plasmid transfection
T1 sequence (P98088 with tags, fused parts or gaps I3234V/G3481S/DEL3501-3501): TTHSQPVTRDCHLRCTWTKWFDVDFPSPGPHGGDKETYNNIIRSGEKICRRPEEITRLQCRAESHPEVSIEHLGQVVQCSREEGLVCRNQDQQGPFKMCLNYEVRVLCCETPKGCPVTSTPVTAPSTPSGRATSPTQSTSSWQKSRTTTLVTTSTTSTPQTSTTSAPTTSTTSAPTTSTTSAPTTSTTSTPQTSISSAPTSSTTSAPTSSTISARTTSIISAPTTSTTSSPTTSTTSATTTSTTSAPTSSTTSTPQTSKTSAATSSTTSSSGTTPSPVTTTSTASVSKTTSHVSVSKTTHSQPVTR
Source text: (§3) An exemplary amino acid sequence of MUC5AC is presented in SEQ ID NO: 36 with an exemplary nucleic acid sequence encoding MUC5AC presented in SEQ ID NO: 37. Therefore, a recombinant expression plasmid was designed and constructed that encoded residues upstream of tandem repeat units and two tandem repeat units (“MUC5AC-long” SEQ ID NO: 38 with the corresponding nucleic acid sequence of SEQ ID NO: 39). The MUC5AC long peptide corresponds to amino acid residues 2636 to 2942 of the MUC5AC protein (SEQ ID NO: 36). A second expression plasmid was designed and constructed that encoded primarily a short domain which connects to the central repetitive region and only a portion of the tandem repeat residues (“MUC5AC-short” SEQ ID NO: 40 with the nucleic acid encoding it in SEQ ID NO: 41). The MUC5AC short peptide corresponds to amino acid residues 2636 to 2763 of the MUC5AC protein (SEQ ID NO: 36). These smaller fragments of the large MUC5AC molecule were predicted to comprise NEO-101 antibody binding regions that contain the NPC-1 epitope(s).
(§4) The DNA sequences that contained NEO-101 antibody binding regions, based on the amino acid sequence, were back-translated to nucleic acid sequence and the DNAs were synthesized by methods well-known in the art. […]

MUC5AC short construct = target: T2, MUC5AC short construct (Homo sapiens, UniProt P98088, I3234V); assay: Immunofluorescence of transfected CHO cells; format: cell-based; conditions: different plasmid clones of the MUC5AC short construct
T2 construct: expressed in transfected cells; host or cells: CHO cells, transient/clonal plasmid transfection
T2 sequence (P98088 3212-3339 I3234V): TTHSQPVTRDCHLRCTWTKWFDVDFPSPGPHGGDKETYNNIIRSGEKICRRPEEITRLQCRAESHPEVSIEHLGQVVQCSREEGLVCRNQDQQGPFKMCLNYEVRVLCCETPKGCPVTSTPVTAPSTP
Source text: as §3, §4

LS174T colorectal tumor = LS174T colorectal tumor xenograft model; format: in vivo, nude mice; conditions: same treatment regimen; last day P=0.0145
Procedure: Since the LS174T colorectal tumor cell line served as a good target in vitro in the ADCC assay, this cell line was used in a xenograft tumor model. The LS174T cells were implanted subcutaneously in nude mice and the same treatment regimen was administered to these mice. […] Nonetheless, we observed a 2-3-fold reduction in tumor growth in NEO-101 treated mice compared to the 2 control groups of mice following the treatment cycles. The anti-tumor effect upon treatment with NEO-101 was significant on the last day of measuring tumors with P=0.0145 by one-way ANOVA. However, many of the tumors in the control groups became ulcerated and were greater than 1000 mm^3 and the study was terminated.

B1: NEO-101: Chimeric NEO-101 antibody, engineered in CHO-DG44 production cell clone 4B7; targets a variant of MUC5AC (protein)
light: QVVLTQSPVIMSASPGEKVTMTCSASSSISYMYWYQQKPGTSPKRWIYDTSKLASGVPARFSGSGSGTSYSLTISNMEAGDAATYYCHQRDSYPWTFGGGTNLEIK
heavy: QVQLKESGPDLVAPSQSLSITCTVSGFSLSKFGVNWVRQPPGKGLEWLGVIWGDGSTSYNSGLISRLSISKENSKSQVFLKLNSLQADDTATYYCVKPGGDYWGHGTSVTVSS
- % Positive by IHC with NEO-1O1 [1]: 100%
- Positive by IHC, subjects/total [1]: (5/5)
- % Positive by IHC with NEO-1O1 [2]: 76%
- Positive by IHC, subjects/total [2]: (25/33)
- CHO cells bound by antibody (MUC5AC long construct): 76%-88%
- CHO cells bound by antibody (MUC5AC short construct): 11%-80%
- reduction in tumor growth compared to the 2 control groups (LS174T colorectal tumor): 2-3 fold
